Values quoted from earlier work as cited in publication PMC7156326.

Molecular target: GATAD2A coiled-coil (Homo sapiens) (UniProt Q86YP4)
Sequence of UniProt Q86YP4 (Q86YP4 137-178): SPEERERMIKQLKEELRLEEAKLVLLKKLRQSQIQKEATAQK

MBD2 coiled-coil (from UniProt Q9UBB5)
Kd: 50 nM
